Consider four variants from paper PMC4474532.

To fix the notation:
B1: human PERK luminal domain (residues 105–403) [human] / itself (parent)
chain: LVIISTLDGRIAALDPENHGKKQWDLDVGSGSLVSSSLSKPEVFGNKMIIPSLDGALFQWDQDRESMETVPFTVESLLESSYKFGDDVVLVGGKSLTTYGLSAYSGKVRYICSALGCRQWDSDEMEQEEDILLLQRTQKTVRAVGPRSGNEKWNFSVGHFELRYIPDMETRAGFIESTFKPNENTEESKIISDVEEQEAAIMDIVIKVSVADWKVMAFSKKGGHLEWEYQFCTPIASAWLLKDGKVIPISLFDDTSYTSNDDVLEDEEDIVEAARGATENSVYLGMYRGQLYLQSSVRI

In the test the parent is B1. In words: sedimentation velocity AUC. The conditions noted are these: with itself.

Consider LVIISTLDGRIAALDPENHGKKQWDLDVGSGSLVSSSLSKPEVFGNKMIIPSLDGALFQWDQDRESMETVPFTVESLLESSYKFGDDVVLVGGKSLTTYGLSAYSGKVRYICSALGCRQWDSDEMEQEEDILLLQRTQKTVRAVGPRSGNEKWNFSVGHFELRYIPDMETRAGFIESTFKPNENTEESKIISDVEEQEAAIMDIVIKVSVADWKVMAFSKKGGHLEWEYQFCTPIASAWLLKDGKVIPISLFDDTSYTSNDDVLEDEEDIVEAARGATENSVYLGMYRGQNYLQSSVRI [chain 1 L291N], for which the screen value was -57% (parent: 0) and 0.32 (parent: 0.73).
The matching figures for LVIISTLDGRIAALDPENHGKKQWDLDVGSGSLVSSSLSKPEVFGNKMIIPSLDGALFQWDQDRESMETVPFTVESLLESSYKFGDDVVLVGGKSLTTYGLSAYSGKVRYICSALGCRQWDSDEMEQEEDILLLQRTQKTVRAVGPRSGNEKWNFSVGHFELRYIPDMETRAGFIESTFKPNENTEESKIISDVEEQEAAIMDIVIKVSVADWKVMAFSKKGGHLEWEYQFCTPIASAWLLKDGKVIPISLFDDTSYTSNDDVLEDEEDIVEANRGATENSVYLGMYRGQLYLQSSVRI [chain 1 A274N]: -52% and 0.35.
For LVIISTLDGRIAALDPENHGKKQWDLDVGSGSLVSSSLSKPEVFGNKMIIPSLDGALFQWDQDRESMETVPFTVESLLESSYKFGDDVVLVGGKSLTTYGLSAYSGKVRYICSALGCRQWDSDEMEQEEDILLLQRTQKTVRAVGPRSGNEKWNFSVGHFELRYIPDMETRAGFIESTFKPNENTEESKIISDVEEQEAAIMDIVIKVSVADWKVMAFSKKGGHLEWEYQFCTPIASAWLLKDGKVIPISLFDDTSYTSNDDVLEDEEDIVEAARGATENSVYNGMYRGQLYLQSSVRI [chain 1 L284N] the same measures were -58% and 0.31.
The matching figures for LVIISTLDGRIAALDPENHGKKQWDLDVGSGSLVSSSLSKPEVFGNKMIIPSLDGALFQWDQDRESMETVPFTVESLLESSYKFGDDVVLVGGKSLTTYGLSAYSGKVRYICSALGCRQWDSDEMEQEEDILLLQRTQKTVRAVGPRSGNEKWNFSVGHFELRYIPDMETRAGFIESTFKPNENTEESKIISDVEEQEAAIMDIVIKVSVADWKVMAFSKKGGHLEWEYQFCTPIASAWLLKDGKVIPISLFDDTSYTSNDDVLEDEEDIVEAARGATENSVYLGMYRGQLYNQSSVRI [chain 1 L293N]: -61% and 0.28.
